Several values for one entry are separate records, joined by “and”; a condition that tells them apart may be missing. Equal values may be shown once.
B1: Cyclin-dependent kinases regulatory subunit, P08463 (parent)
chain: MSKSGVPRLLTASERERLEPFIDQIHYSPRYADDEYEYRHVMLPKAMLKAIPTDYFNPETGTLRILQEEEWRGLGITQSLGWEMYEVHVPEPHILLFKREKDYQMKFSQQRGG

Variants of: B1
Conditions: Schizosaccharomyces pombe (strain 972 / ATCC 24843), pH 7.1, 25 °C, GdnHCl, Fluorescence, Tris-HCl, NaCl, reversible: yes, structure 1SCE, whole UniProt chain shown

| Variant | ddG of mutation (higher = less stable) (transition: 2) | denaturant m value (transition: 2) | denaturant midpoint (higher = more stable) (transition: 2) | unfolding free energy (transition: 2) | denaturant m value (transition: 2+2) | denaturant midpoint (higher = more stable) (transition: 2+2) | unfolding free energy (transition: 2+2) | denaturant m value (transition: 3) | denaturant midpoint (higher = more stable) (transition: 3) |
| --- | --- | --- | --- | --- | --- | --- | --- | --- | --- |
| MSKSGVPRLLTASERERLEPFIDQIHYSPRYADDEYEYRHVMLPKAMLKAIPTDYFNPETGTLRILQEEEWRGLGITQSLGWEMYEVHVVEPHILLFKREKDYQMKFSQQRGG [P90V] | 0.63 kcal/mol and 0.62 kcal/mol | 3.42 kcal/mol/M and 3.55 kcal/mol/M | 1.96 M and 1.9 M | 6.71 kcal/mol and 6.74 kcal/mol | – | – | – | – | – |
| MSKSGVPRLLTASERERLEPFIDQIHYSPRYADDEYEYRHVMLPKAMLKAIPTDYFNPETGTLRILQEEEWRGLGITQSLGWEMYEVHVVEVHILLFKREKDYQMKFSQQRGG [P90V P92V] | – | 3.42 kcal/mol/M and 3.31 kcal/mol/M | 2.04 M and 1.67 M | 6.97 kcal/mol and 5.52 kcal/mol | 1.88 kcal/mol/M | 4.14 M | 7.8 kcal/mol | 1.7 kcal/mol/M and 3.39 kcal/mol/M | 0.74 M and 2.08 M |
| MSKSGVPRLLTASERERLEPFIDQIHYSPRYADDEYEYRHVMLPKAMLKAIPTDYFNPETGTLRILQEEEWRGLGITQSLGWEMYEVHVPEVHILLFKREKDYQMKFSQQRGG [P92V] | 0.18 kcal/mol and 0.08 kcal/mol | 3.85 kcal/mol/M and 3.55 kcal/mol/M | 1.86 M and 2.05 M | 7.16 kcal/mol and 7.28 kcal/mol | – | – | – | – | – |

From FireProtDB (doi:10.1021/bi002812d)
